One block for each substance: values may come before it.
Legend:
[1] = target: Porcine brain tubulin (growing microtubules) (porcine); test: TIRF microscopy of GFP-CRMP2A on growing microtubules in vitro
GST-FKBP12 (mouse) = GST-FKBP12 (mouse) (UniProt P26883); test: pull-down
Chain of UniProt P26883 (P26883 whole entry): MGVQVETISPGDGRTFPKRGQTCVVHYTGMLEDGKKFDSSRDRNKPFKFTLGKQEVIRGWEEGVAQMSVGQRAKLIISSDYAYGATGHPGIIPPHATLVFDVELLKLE

Substance: FLAG-tagged GFP-CRMP2A (natural protein)
- length of the GFP-positive ends [1]: 0.297 um
- length of the GFP-positive ends (with FKBP12) [1]: 0.133 um
- persistence of GFP signal [1]: 33.1 s
- persistence of GFP signal (with FKBP12) [1]: 18.7 s

Substance: FLAG-CRMP2A S623A, expressed under high Cdk5 activity (natural protein)
- pull-down signal relative to WT CRMP2A in the presence of Cdk5 (GST-FKBP12 (mouse)): 1.75

Substance: Cdk5-phosphorylated FLAG-CRMP2A (natural protein)
- pull-down signal normalized to the input, relative to CRMP2A without Cdk5 (GST-FKBP12 (mouse)): 0.39

The remaining lines, values ahead:

- pull-down signal relative to WT CRMP2A in the presence of Cdk5 (GST-FKBP12 (mouse)): 2.57
Substance: FLAG-CRMP2A S27A, expressed under high Cdk5 activity (natural protein)

- pull-down signal normalized to the input, relative to CRMP2A (GST-FKBP12 (mouse)): 2.82
Substance: FLAG-CRMP2AΔ604 (CRMP2A 1-604) (domain or fragment)

- pull-down signal relative to WT CRMP2A in the presence of Cdk5 (GST-FKBP12 (mouse)): 2.59
Substance: FLAG-CRMP2A S27A, S623A, expressed under high Cdk5 activity (natural protein)

— article doi:10.1101/2025.01.13.632804
